Reference: patent US20080171347A1

Target: mouse synaptosomes (synaptosome preparation carrying the BoNT/A acceptor complex)

active botulinum neurotoxin type A (BoNT/A) (from UniProt P0DPI1 2-1296)
percent inhibition (maximum at plateau): 78%
